# In publication PMC9482650, “Quantitative fragmentomics allow affinity mapping of interactomes” (Nature Communications, 2022):
# T1: DFNB31_2, Q9P202
# T1 sequence (Q9P202 274-371, limits assumed, looked up): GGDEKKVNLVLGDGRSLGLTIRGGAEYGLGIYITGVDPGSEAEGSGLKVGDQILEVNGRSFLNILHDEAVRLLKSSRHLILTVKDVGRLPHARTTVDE
# T2: MPP7, Q5T2T1
# T2 sequence (Q5T2T1 134-230, limits assumed, looked up): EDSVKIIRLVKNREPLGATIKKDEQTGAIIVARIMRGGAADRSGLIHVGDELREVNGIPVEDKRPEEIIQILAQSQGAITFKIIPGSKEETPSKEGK
# T3: APBA1_1, Q02410
# T3 sequence (Q02410 651-752, limits assumed, looked up): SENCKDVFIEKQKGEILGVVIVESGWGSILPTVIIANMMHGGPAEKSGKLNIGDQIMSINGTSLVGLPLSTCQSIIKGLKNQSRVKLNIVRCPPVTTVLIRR
# T4: LIN7B, Q9HAP6
# T4 sequence (Q9HAP6 88-185, limits assumed, looked up): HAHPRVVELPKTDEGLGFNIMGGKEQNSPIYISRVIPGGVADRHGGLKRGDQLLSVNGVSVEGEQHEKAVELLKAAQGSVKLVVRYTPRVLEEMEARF
# T5: DLG3_2, Q92796
# T5 sequence (Q92796 221-321, limits assumed, looked up): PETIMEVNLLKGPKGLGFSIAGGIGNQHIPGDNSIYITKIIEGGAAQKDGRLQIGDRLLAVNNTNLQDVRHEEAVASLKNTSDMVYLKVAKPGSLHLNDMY
# T6: HTRA3, P83110
# T6 sequence (P83110 354-453, limits assumed, looked up): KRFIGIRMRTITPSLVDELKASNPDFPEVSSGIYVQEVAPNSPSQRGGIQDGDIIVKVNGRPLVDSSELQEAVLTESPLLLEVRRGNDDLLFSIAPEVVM
# T7: GRIP1_3, Q9Y3R0
# T7 sequence (Q9Y3R0 247-346, limits assumed, looked up): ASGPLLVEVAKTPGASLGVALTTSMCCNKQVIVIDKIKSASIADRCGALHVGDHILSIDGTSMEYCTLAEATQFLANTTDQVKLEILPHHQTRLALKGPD
# T8: GRIP1_4, Q9Y3R0
# T8 sequence (Q9Y3R0 467-571, limits assumed, looked up): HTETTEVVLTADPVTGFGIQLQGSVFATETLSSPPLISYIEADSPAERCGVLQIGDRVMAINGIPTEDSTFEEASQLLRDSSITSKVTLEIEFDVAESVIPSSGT
# T9: PDZRN3_1, Q9UPQ7
# T9 sequence (Q9UPQ7 244-349, limits assumed, looked up): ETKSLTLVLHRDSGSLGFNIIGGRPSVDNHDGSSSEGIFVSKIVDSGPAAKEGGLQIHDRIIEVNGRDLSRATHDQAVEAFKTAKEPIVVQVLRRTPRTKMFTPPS
# T10: ARHGAP21, Q5T5U3
# T10 sequence (Q5T5U3 45-169, limits assumed, looked up): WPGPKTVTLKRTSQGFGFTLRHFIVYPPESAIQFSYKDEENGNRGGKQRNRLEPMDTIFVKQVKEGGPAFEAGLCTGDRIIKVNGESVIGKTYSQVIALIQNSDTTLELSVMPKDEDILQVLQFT
# T11: LIN7C, Q9NUP9
# T11 sequence (Q9NUP9 88-185, limits assumed, looked up): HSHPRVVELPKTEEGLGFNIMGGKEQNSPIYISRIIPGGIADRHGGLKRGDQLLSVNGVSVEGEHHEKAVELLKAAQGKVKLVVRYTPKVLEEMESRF
# How the values were obtained:
# Assay in all cases: holdup assay
# Set-up in all cases: key: below the threshold = too weak to quantify, mostly under pKd 3.1 to 4
# Settings in all cases: plain residues with an end cap or a label only (N-terminal biotin on a linker: ado-ado)
# DFNB31_2, Q9P202 = biological target: T1, DFNB31_2, Q9P202
# MPP7, Q5T2T1 = biological target: T2, MPP7, Q5T2T1
# APBA1_1, Q02410 = biological target: T3, APBA1_1, Q02410
# GRIP2_5, Q9C0E4 = biological target: GRIP2_5, Q9C0E4
# Chain of GRIP2_5, Q9C0E4 (Q9C0E4 544-642): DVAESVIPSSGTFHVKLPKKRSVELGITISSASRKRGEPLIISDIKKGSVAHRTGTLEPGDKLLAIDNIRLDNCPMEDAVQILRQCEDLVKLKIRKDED
# CASK, O14936 = biological target: CASK, O14936
# Chain of CASK, O14936 (O14936 487-570): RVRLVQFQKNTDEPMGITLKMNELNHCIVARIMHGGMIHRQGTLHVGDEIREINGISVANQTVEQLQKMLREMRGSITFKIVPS
# FRMPD3, Q5JV73 = biological target: FRMPD3, Q5JV73
# Chain of FRMPD3, Q5JV73 (Q5JV73 12-100): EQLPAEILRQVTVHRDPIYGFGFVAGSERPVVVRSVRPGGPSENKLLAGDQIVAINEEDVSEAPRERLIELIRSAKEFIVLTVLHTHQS
# LIN7B, Q9HAP6 = biological target: T4, LIN7B, Q9HAP6
# DLG3_2, Q92796 = biological target: T5, DLG3_2, Q92796
# NHERF4_2, Q86UT5 = biological target: NHERF4_2, Q86UT5
# Chain of NHERF4_2, Q86UT5 (Q86UT5 220-308): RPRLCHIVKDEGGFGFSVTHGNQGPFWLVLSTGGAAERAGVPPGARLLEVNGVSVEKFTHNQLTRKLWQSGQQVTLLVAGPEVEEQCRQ
# HTRA3, P83110 = biological target: T6, HTRA3, P83110
# MAGI2_3, Q86UL8 = biological target: MAGI2_3, Q86UL8
# Chain of MAGI2_3, Q86UL8 (Q86UL8 600-682): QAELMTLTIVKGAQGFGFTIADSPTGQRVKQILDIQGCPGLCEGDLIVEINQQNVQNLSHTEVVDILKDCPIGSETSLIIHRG
# Inadl_2, Q8NI35 = biological target: Inadl_2, Q8NI35
# Chain of Inadl_2, Q8NI35 (Q8NI35 238-335): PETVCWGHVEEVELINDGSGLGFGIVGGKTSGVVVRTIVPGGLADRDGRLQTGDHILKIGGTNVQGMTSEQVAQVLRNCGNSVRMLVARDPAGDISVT
# GRIP1_3, Q9Y3R0 = biological target: T7, GRIP1_3, Q9Y3R0
# GRID2IP_1, A4D2P6 = biological target: GRID2IP_1, A4D2P6
# Chain of GRID2IP_1, A4D2P6 (A4D2P6 1-87): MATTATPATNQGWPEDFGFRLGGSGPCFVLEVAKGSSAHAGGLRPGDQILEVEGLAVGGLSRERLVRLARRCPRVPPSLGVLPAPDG
# GRIP1_4, Q9Y3R0 = biological target: T8, GRIP1_4, Q9Y3R0
# GIPC2, Q8TF65 = biological target: GIPC2, Q8TF65
# Chain of GIPC2, Q8TF65 (Q8TF65 112-203): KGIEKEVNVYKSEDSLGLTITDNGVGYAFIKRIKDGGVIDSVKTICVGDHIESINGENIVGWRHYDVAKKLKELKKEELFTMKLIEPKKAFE
# PDZRN3_1, Q9UPQ7 = biological target: T9, PDZRN3_1, Q9UPQ7
# GORASP2, Q9H8Y8 = biological target: GORASP2, Q9H8Y8
# LNX1_1, Q8TBB1 = biological target: LNX1_1, Q8TBB1
# Chain of LNX1_1, Q8TBB1 (Q8TBB1 261-371): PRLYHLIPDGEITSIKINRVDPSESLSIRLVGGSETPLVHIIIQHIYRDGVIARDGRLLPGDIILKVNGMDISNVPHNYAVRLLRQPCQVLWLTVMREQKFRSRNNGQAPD
# FRMPD4, Q14CM0 = biological target: FRMPD4, Q14CM0
# Chain of FRMPD4, Q14CM0 (Q14CM0 67-160): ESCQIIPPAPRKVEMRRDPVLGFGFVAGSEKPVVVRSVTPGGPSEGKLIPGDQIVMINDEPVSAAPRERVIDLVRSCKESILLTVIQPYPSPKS
# MAGI2_4, Q86UL8 = biological target: MAGI2_4, Q86UL8
# Chain of MAGI2_4, Q86UL8 (Q86UL8 772-865): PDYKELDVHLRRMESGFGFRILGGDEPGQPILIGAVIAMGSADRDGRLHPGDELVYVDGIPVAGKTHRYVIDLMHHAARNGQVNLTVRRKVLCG
# DLG4_1, P78352 = biological target: DLG4_1, P78352
# Chain of DLG4_1, P78352 (P78352 62-152): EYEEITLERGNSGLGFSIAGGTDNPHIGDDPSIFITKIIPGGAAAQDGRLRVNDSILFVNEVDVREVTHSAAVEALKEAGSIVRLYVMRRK
# ARHGAP21, Q5T5U3 = biological target: T10, ARHGAP21, Q5T5U3
# GORASP1, Q9BQQ3 = biological target: GORASP1, Q9BQQ3
# Chain of GORASP1, Q9BQQ3 (Q9BQQ3 1-208): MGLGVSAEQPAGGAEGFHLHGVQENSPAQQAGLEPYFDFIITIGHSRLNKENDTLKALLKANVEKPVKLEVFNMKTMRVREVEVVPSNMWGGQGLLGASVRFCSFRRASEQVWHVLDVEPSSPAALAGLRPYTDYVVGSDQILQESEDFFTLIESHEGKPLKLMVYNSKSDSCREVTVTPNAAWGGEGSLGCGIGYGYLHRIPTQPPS
# LIN7C, Q9NUP9 = biological target: T11, LIN7C, Q9NUP9
Binder,"pKd (DFNB31_2, Q9P202)","pKd (MPP7, Q5T2T1)","pKd (APBA1_1, Q02410)","pKd (GRIP2_5, Q9C0E4)","pKd (CASK, O14936)","pKd (FRMPD3, Q5JV73)","pKd (LIN7B, Q9HAP6)","pKd (DLG3_2, Q92796)","pKd (NHERF4_2, Q86UT5)","pKd (HTRA3, P83110)","pKd (MAGI2_3, Q86UL8)","pKd (Inadl_2, Q8NI35)","pKd (GRIP1_3, Q9Y3R0)","pKd (GRID2IP_1, A4D2P6)","pKd (GRIP1_4, Q9Y3R0)","pKd (GIPC2, Q8TF65)","pKd (PDZRN3_1, Q9UPQ7)","pKd (GORASP2, Q9H8Y8)","pKd (LNX1_1, Q8TBB1)","pKd (FRMPD4, Q14CM0)",other results
"SKSNFGSEPL [KIF17, Q9P2E2]",below the threshold,below the threshold,below the threshold,below the threshold,below the threshold,below the threshold,below the threshold,below the threshold,below the threshold,below the threshold,below the threshold,below the threshold,below the threshold,below the threshold,below the threshold,below the threshold,below the threshold,below the threshold,below the threshold,below the threshold,"pKd (MAGI2_4, Q86UL8): below the threshold; pKd (DLG4_1, P78352): below the threshold; pKd (ARHGAP21, Q5T5U3): 3.56; pKd (GORASP1, Q9BQQ3): below the threshold; pKd (LIN7C, Q9NUP9): 4.09"
"DTTVPESEDL [MYOZ2, Q9NPC6]",below the threshold,below the threshold,below the threshold,below the threshold,below the threshold,below the threshold,below the threshold,below the threshold,below the threshold,below the threshold,below the threshold,below the threshold,below the threshold,below the threshold,below the threshold,below the threshold,below the threshold,below the threshold,below the threshold,3.66,"pKd (MAGI2_4, Q86UL8): below the threshold; pKd (DLG4_1, P78352): below the threshold; pKd (ARHGAP21, Q5T5U3): below the threshold; pKd (GORASP1, Q9BQQ3): below the threshold; pKd (LIN7C, Q9NUP9): below the threshold"
"VRNLPESEEL [MYOZ3, Q8TDC0]",below the threshold,below the threshold,below the threshold,below the threshold,below the threshold,below the threshold,below the threshold,below the threshold,below the threshold,below the threshold,below the threshold,below the threshold,below the threshold,below the threshold,below the threshold,below the threshold,below the threshold,below the threshold,below the threshold,3.89,"pKd (MAGI2_4, Q86UL8): below the threshold; pKd (DLG4_1, P78352): below the threshold; pKd (ARHGAP21, Q5T5U3): 3.59; pKd (GORASP1, Q9BQQ3): below the threshold; pKd (LIN7C, Q9NUP9): below the threshold"
"YYKRPVQEWV [MMP24, Q9Y5R2]",below the threshold,below the threshold,3.48,below the threshold,below the threshold,3.55,below the threshold,4.23,below the threshold,5.7,below the threshold,3.94,below the threshold,below the threshold,below the threshold,below the threshold,below the threshold,5.44,3.5,below the threshold,"pKd (MAGI2_4, Q86UL8): 4.09; pKd (DLG4_1, P78352): below the threshold; pKd (ARHGAP21, Q5T5U3): below the threshold; pKd (GORASP1, Q9BQQ3): 4.9; pKd (LIN7C, Q9NUP9): below the threshold"

# Now from value to binder, other results behind:
"pKd (DFNB31_2, Q9P202)","pKd (MPP7, Q5T2T1)","pKd (APBA1_1, Q02410)","pKd (GRIP2_5, Q9C0E4)","pKd (CASK, O14936)","pKd (FRMPD3, Q5JV73)","pKd (LIN7B, Q9HAP6)","pKd (DLG3_2, Q92796)","pKd (NHERF4_2, Q86UT5)","pKd (HTRA3, P83110)","pKd (MAGI2_3, Q86UL8)","pKd (Inadl_2, Q8NI35)","pKd (GRIP1_3, Q9Y3R0)","pKd (GRID2IP_1, A4D2P6)","pKd (GRIP1_4, Q9Y3R0)","pKd (GIPC2, Q8TF65)","pKd (PDZRN3_1, Q9UPQ7)","pKd (GORASP2, Q9H8Y8)","pKd (LNX1_1, Q8TBB1)","pKd (FRMPD4, Q14CM0)",Binder,other results
below the threshold,below the threshold,below the threshold,below the threshold,below the threshold,below the threshold,3.66,3.85,below the threshold,below the threshold,4.1,below the threshold,below the threshold,below the threshold,below the threshold,below the threshold,3.78,3.99,3.79,below the threshold,"LPHGHSTTRV [NLGN4X, Q8N0W4]","pKd (MAGI2_4, Q86UL8): 3.91; pKd (DLG4_1, P78352): 3.51; pKd (ARHGAP21, Q5T5U3): 3.73; pKd (GORASP1, Q9BQQ3): 3.76; pKd (LIN7C, Q9NUP9): below the threshold"
below the threshold,below the threshold,below the threshold,below the threshold,below the threshold,below the threshold,3.71,4.21,below the threshold,below the threshold,3.61,below the threshold,below the threshold,below the threshold,below the threshold,below the threshold,below the threshold,below the threshold,below the threshold,below the threshold,"GNSVLKSTQF [SLC22A12, Q96S37]","pKd (MAGI2_4, Q86UL8): 3.79; pKd (DLG4_1, P78352): below the threshold; pKd (ARHGAP21, Q5T5U3): below the threshold; pKd (GORASP1, Q9BQQ3): below the threshold; pKd (LIN7C, Q9NUP9): 4.12"
